Data on one protein can be found in publication PMC3597468 (Journal of controlled release : official journal of the …, 2012).

This series concerns the molecule itself. The series can be described thus: cross-linking.

B1: Catalase, from bovine liver (enzyme, UniProt P00432 1-527, looked up)
chain: MADNRDPASDQMKHWKEQRAAQKPDVLTTGGGNPVGDKLNSLTVGPRGPLLVQDVVFTDEMAHFDRERIPERVVHAKGAGAFGYFEVTHDITRYSKAKVFEHIGKRTPIAVRFSTVAGESGSADTVRDPRGFAVKFYTEDGNWDLVGNNTPIFFIRDALLFPSFIHSQKRNPQTHLKDPDMVWDFWSLRPESLHQVSFLFSDRGIPDGHRHMNGYGSHTFKLVNANGEAVYCKFHYKTDQGIKNLSVEDAARLAHEDPDYGLRDLFNAIATGNYPSWTLYIQVMTFSEAEIFPFNPFDLTKVWPHGDYPLIPVGKLVLNRNPVNYFAEVEQLAFDPSNMPPGIEPSPDKMLQGRLFAYPDTHRHRLGPNYLQIPVNCPYRARVANYQRDGPMCMMDNQGGAPNYYPNSFSAPEHQPSALEHRTHFSGDVQRFNSANDDNVTQVRTFYLKVLNEEQRKRLCENIAGHLKDAQLFIQKKAVKNFSDVHPEYGSRIQALLDKYNEEKPKNAVHTYVQHGSHLSAREKANL
In the case of B1, the binding result is “binds”.
